Legend:
Assay in all cases: LC-MS of Fabs digested from co-expressed IgG
[1] = target: panitumumab heavy chain, WT CH1, hole CH3 (human)
[2] = target: ustekinumab heavy chain, CH1 design 1039, knob CH3 (human)
[3] = target: ustekinumab heavy chain, WT CH1, knob CH3 (human)
[4] = target: panitumumab heavy chain, CH1 of designs 1148 and 454 (L145S), hole CH3 (human)
[5] = target: panitumumab heavy chain, CH1 design 367, hole CH3 (human)
[6] = target: panitumumab heavy chain, CH1 design 2529, hole CH3 (human)
[7] = target: panitumumab heavy chain, CH1 design 1443, hole CH3 (human)
[8] = target: panitumumab heavy chain, CH1 design 767, hole CH3 (human)
[9] = target: panitumumab heavy chain, CH1 of designs 1328 and 838 (G166K, T187K), hole CH3 (human)
[10] = target: panitumumab heavy chain, CH1 design 1039, hole CH3 (human)

panitumumab light chain, WT Cκ
% of observed Fabs (co-expressed: m3) [1]: 41%
% of observed Fabs (co-expressed: m38) [1]: 54%
% of observed Fabs (co-expressed: m40) [2]: 18%
% of observed Fabs (co-expressed: m3) [3]: 21%

ustekinumab light chain, WT Cκ
% of observed Fabs (co-expressed: m34) [4]: 10%
% of observed Fabs (co-expressed: m3) [1]: 8%
% of observed Fabs (co-expressed: m13) [5]: 8%
% of observed Fabs (co-expressed: m11) [6]: 18%
% of observed Fabs (co-expressed: m3) [7]: 8%
% of observed Fabs (co-expressed: m25) [8]: 10%
% of observed Fabs (co-expressed: m17) [9]: 6%
% of observed Fabs (co-expressed: m7) [3]: 50%
% of observed Fabs (co-expressed: m17) [3]: 50%
% of observed Fabs (co-expressed: m21) [3]: 41%
% of observed Fabs (co-expressed: m23) [3]: 45%
% of observed Fabs (co-expressed: m25) [3]: 41%
% of observed Fabs (co-expressed: m27) [3]: 40%
% of observed Fabs (co-expressed: m30) [3]: 40%
% of observed Fabs (co-expressed: m32) [3]: 41%
% of observed Fabs (co-expressed: m36) [3]: 45%
% of observed Fabs (co-expressed: m3) [10]: 10%
